Source: PMC10919079, “Biosynthesis of UDP-α-N-Acetyl-D-mannosaminuronic Acid and CMP-β-N-Acetyl-D-neuraminic Acid for the Capsular Polysaccharides of Campylobacter jejuni” (Biochemistry, 2024)

Key:
[1] = target: T1, CMP-Neu5Ac synthase (HS6.5) (Campylobacter jejuni, UniProt P0DY07); assay: anion exchange chromatography, NMR and MS of CMP-Neu5Ac product; format: biochemical; conditions: pH 7.5; Neu5Ac co-substrate, MgCl2, pyrophosphatase
T1 construct: full-length synthetic codon-optimised gene, N-terminal His6 tag kept, pET-28a(+), E. coli BL21(DE3)
T1 sequence (P0DY07 whole entry): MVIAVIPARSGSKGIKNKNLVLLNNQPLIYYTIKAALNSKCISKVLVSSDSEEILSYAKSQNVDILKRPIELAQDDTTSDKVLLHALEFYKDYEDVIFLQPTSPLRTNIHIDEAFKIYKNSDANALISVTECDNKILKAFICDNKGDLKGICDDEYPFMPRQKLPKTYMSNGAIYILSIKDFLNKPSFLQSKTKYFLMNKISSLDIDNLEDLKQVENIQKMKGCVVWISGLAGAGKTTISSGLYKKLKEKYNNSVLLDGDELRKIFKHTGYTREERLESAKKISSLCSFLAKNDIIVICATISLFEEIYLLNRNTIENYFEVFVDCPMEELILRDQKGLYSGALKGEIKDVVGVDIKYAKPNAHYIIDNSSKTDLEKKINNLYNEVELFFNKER

[2] = tested on: CC(=O)N[C@@H]1[C@@H](OP(=O)(O)OP(=O)(O)OC[C@H]2O[C@@H](n3ccc(=O)[nH]c3=O)[C@H](O)[C@@H]2O)O[C@H](CO)[C@@H](O)[C@@H]1O; assay: purified protein; conditions: pH 7.5, 25 °C, same buffer, 2.0 mM NAD+, 2.0 mM DTT, UDP-ManNAc generated in situ from UDP-GlcNAc with excess C2-epimerase (10 μM)
[3] = tested on: CC(=O)N[C@H]1[C@@H](OP(=O)(O)OP(=O)(O)OC[C@H]2O[C@@H](n3ccc(=O)[nH]c3=O)[C@H](O)[C@@H]2O)O[C@H](CO)[C@@H](O)[C@@H]1O; assay: purified protein; conditions: pH 7.5, 25 °C
[4] = same buffer, 10 mM MgCl2, 2.0 mM PEP, 300 μM NADH
[5] = 50 mM HEPES, 250 mM KCl, 5% glycerol, excess C6-dehydrogenase (10 μM), 2.0 mM NAD+, 2.0 mM DTT

In the case of `Nc1ccn([C@@H]2O[C@H](COP(=O)(O)OP(=O)(O)OP(=O)(O)O)[C@@H](O)[C@H]2O)c(=O)n1` [CTP], the “anion exchange chromatography, NMR and MS of CMP-Neu5Ac product” value [1] is reported as “CMP-Neu5Ac synthase using CTP as the nucleotide donor”.

“UDP-ManNAc C6-dehydrogenase (HS11.16) (Campylobacter jejuni)” gave a Km [2] of 22 ± 1 µM, a kcat [2] of 0.2 ± 0.01 s⁻¹ and a kcat/Km [2] of 8700 ± 400 M⁻¹ s⁻¹.

With “hydrolyzing UDP-GlcNAc C2-epimerase (HS6.10) (Campylobacter jejuni subsp. jejuni 81116)” the Km [3, 4] was 160 ± 10 µM, the kcat [3, 4] was 3.1 ± 0.1 s⁻¹ and the kcat/Km [3, 4] was 19900 ± 1000 M⁻¹ s⁻¹.

In the case of “nonhydrolyzing UDP-GlcNAc C2-epimerase (HS11.17) (Campylobacter jejuni)”, the Km [3, 5] is reported as 1370 ± 50 µM, the kcat [3, 5] is reported as 5.7 ± 0.2 s⁻¹ and the kcat/Km [3, 5] is reported as 4200 ± 200 M⁻¹ s⁻¹.
